Article PMC11488100, “PET imaging of CXCR4 expression using [^18F]AlF-NOTA-QHY-04 for hematologic malignancy and solid tumors” (Theranostics, 2024)
Bridge positions count the residues as written; N and C are the ends. Square brackets hold non-standard residues; d marks the D form. Peptide text beside a SMILES is read from it. * marks the point of attachment. NOTA = O=C(O)CN1CCN(CC(=O)O)CCN(CC(=O)*)CC1; 2Nal = N[C@@H](Cc1ccc2ccccc2c1)C(=O)O; Pen = CC(C)(S)[C@H](N)C(=O)O; 4Amb = NCc1ccc(C(=O)O)cc1; Ahx = NCCCCCC(=O)O

Columns and labels:
[1] = format: in vitro ADME, human
Procedure: The in vitro and in vivo stability of [^18F]AlF-NOTA-QHY-04 were evaluated by radio-HPLC to examine the RCP after different incubation periods. The binding affinity of the unlabeled precursor to CXCR4 was measured using the biolayer interferometry Octet Red96 system (PALL ForteBio, USA). The details are supplied in the supplemental materials.
(§1) Synthesis of [18F]AlF-NOTA-QHY-04
Briefly, NOTA-QHY-04 was radiolabeled with [18F]F-, following procedures. 10-20 […]
GBq [18F]F− produced by medical cyclotron (MINITRACE Cyclotron, GE, USA) was […]
captured with a QMA SepPak light cartridge (Waters Corporation, USA) and then eluted […]
with 300-500 μL saline (0.9% NaCl). Then, the saline containing [18F]F− was added to […]
(§2) The partition coefficient (logD) of [18F]AlF-NOTA-QHY-04 was determined in a […]
(§3) from each phase were measured for radioactivity using a γ-counter. […]
repeated three times to ensure the accuracy of the results. The logD was calculated by […]
(§4) dividing the average radioactivity in the 1 -octanol layer by that in the PBS layer, and the […]
human serum albumin solution were evaluated by radio-HPLC to examine the radiochemical purity after different incubation periods. For the saline study, 200 μL of [18F]AlF-NOTA-QHY-04 (0.74–3.70 MBq) was incubated at 37°C with 800 μL of saline for 1 h, 3 h and 6 h respectively, and then directly evaluated by radio -HPLC. […]

[2] = format: physicochemical; settings: pH 7.4
Procedure: as §1
Briefly, NOTA-QHY-04 was radiolabeled with [18F]F-, following procedures. 10-20
GBq [18F]F− produced by medical cyclotron (MINITRACE Cyclotron, GE, USA) was
captured with a QMA SepPak light cartridge (Waters Corporation, USA) and then eluted
with 300-500 μL saline (0.9% NaCl). Then, the saline containing [18F]F− was added to
reaction vial, followed by 6-12 μL AlCl3 (10 mM in 0.1M sodium acetate buffer, pH 4),
200 μL acetonitrile (≥ 99.9%, Sigma-Aldrich, USA), and 20-30 μL of NOTA-QHY-04
(20 mg/mL in metal-free water). The vial was heated for 10 min at 110°C. After cooling,
the reaction system was diluted with 10 mL of water and was transferred to a Qasis light
HLB cartridge (Waters Corporation, USA). The cartridge was then washed with 10 mL of
water to remove the free [18F]F−. Finally, the desired product was eluted and collected
with 0.6 mL of ethanol. The product was reconstituted in saline and passed through a 0.22
μm syringe filter (Pall Corporation, USA) into a sterile vial.
Octanol-water partition coefficient (logD)
as §2, §3
repeated three times to ensure the accuracy of the results. The logD was calculated by
as §4

C[C@H](NC(=O)[C@H](CCCNC(=N)N)NC(=O)CCCCCNC(=O)c1ccc(CNC(=O)CN2CCN(CC(=O)O)CCN(CC(=O)O)CC2)cc1)C(=O)N[C@@H]1CSSC(C)(C)[C@@H](C(=O)O)NC(=O)[C@H](Cc2c[nH]cn2)NC(=O)[C@H](Cc2ccc3ccccc3c2)NC(=O)[C@H](CCCNC(=N)N)NC1=O [[^18F]AlF-NOTA-QHY-04] ({NOTA-4Amb-Ahx}-RA[dC]R[2Nal]H[Pen]-OH; disulfide 3-7)
radiochemical purity after incubation in 5% human serum albumin solution [1]: above 95% | logD [2]: -2.21 ± 0.06
